# In patent US20170247440A1 (Hoffmann-La Roche, published 2017):
# B1: antibody 0060 (antibody, V domains shown)
# VH: EVQLLESGGDLVQPGGSLRLSCAASGFTFRSYAMSWVRQAPGKGLEWVSGISAGGGYIYYADSVTGRFTSSRDNYKNTLYLQMNRLRVEDTAVYYCARFYPGYNSDTYYYDGMDVWGQGTTVTVSS
# VL: not shown
# notes: Human antibody from a human Ig locus transgenic rabbit; IgG
# B2: antibody 0058 (antibody, V domains shown)
# VH: EVQLVESGGGLVQPGGSLRLSCAASGFTFSSFWMTWVRQAPGKGLEWVASISAGGGITHYPDSVKDRFTVSRDNAKNSLYLQLNSLRAEDTAVYYCAESGGDIYSDFDYWGQGTLVTVSS
# VL: not shown
# notes: as for B1
# B3: antibody 0064 (antibody, V domains shown)
# VH: EVQLVESGGGLVQPGGSLRLSCAASGFTFSSYWMSWVRQAPGKGLEWVSTISDGGGTTSYADSVKGRFTISRDNSKNTLYLQMNSLRAEDTAVYSCAESGGATDYLFDYWGQGTLVTVSS
# VL: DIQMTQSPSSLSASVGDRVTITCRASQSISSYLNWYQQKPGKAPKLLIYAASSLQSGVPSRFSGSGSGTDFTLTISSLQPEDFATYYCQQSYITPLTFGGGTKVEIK
# notes: as for B1
# Biological target: T1, human PDGF-BB (human, UniProt P01127 82-190)
# Experiment: cell-based or functional assay
# T1 sequence (P01127 82-190 limits assumed): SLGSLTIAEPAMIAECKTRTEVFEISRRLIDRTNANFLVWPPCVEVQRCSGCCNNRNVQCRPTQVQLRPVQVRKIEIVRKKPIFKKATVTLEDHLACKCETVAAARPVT
Binder,Balb-C3T3 Proliferation % neutralization [%],Balb-C3T3 Proliferation IC50 [nM],Pericytes Migration % neutralization [%],Pericytes Migration IC50 [nM],Pericytes Proliferation % neutralization [%],Pericytes Proliferation IC50 [nM]
B1,90,0.29,100,0.013,100,0.6
B2,100,0.24,100,0.002,100,0.08
B3,100,0.024,100,0.14,100,0.08

# Biological target: T1, human PDGF-BB
# Experiment: SPR, IgG, apparent KD (App. KD**)
row,Binder,Kd [nM]
1,B1,0.021
2,B2,0.046
3,B3,0.021

# Biological target: rat PDGF-BB (rat, UniProt Q05028 74-182)
# Experiment: ELISA, immobilized rat PDGF-BB (Example 12)
# Experimental: (§1) The binding analysis was carried out using an enzyme-linked immunosorbent assay (ELISA)-based technology. The antigen rat PDGF-BB (R&D, 520-BB) was immobilized at a concentration of 125 ng/mL in 25 μL in PBS, 0.5% BSA and 0.05% Tween on a 384 well microtiter plate (Thermo Scientific, Cat. No. 464718). Every of the following steps was followed by a washing routine of 3 times 90 μL PBS, 0.5% BSA, 0.05 Tween with dispense and aspiration: 1) blocking step: saturating unbound surface (1 hour, 2% BSA); 2) anti-PDGF-BB antibody in increasing concentrations for 1 hour; 3) detection antibody, dilution=1:3000 (ECL anti-rabbit IgG-POD, NA9340V+ECL anti-human IgG-POD, NA933V or alternatively for murine antibodies ECL anti-mouse IgG-POD; NA 9310V). 20-30 min. after adding the substrate 3,3′,5,5′-tetramethylbenzidine (TMB, Piercenet, Cat. No. 34021) the optical density was determined at 370 nm. The EC₅₀ was calculated with a four parameter logistic model using GraphPad Prism 6.0 software.
# Sequence of rat PDGF-BB (Q05028 74-182): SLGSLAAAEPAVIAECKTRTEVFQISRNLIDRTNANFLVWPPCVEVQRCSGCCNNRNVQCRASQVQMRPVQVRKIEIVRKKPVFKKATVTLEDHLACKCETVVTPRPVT
row,Binder,EC50 [µg/mL]
1,B1,0.11
2,B2,0.0966
3,B3,0.00369

# Biological target: T2, murine PDGF-BB (murine, UniProt P31240 82-190)
# T2 construct: also called muPDGF-BB
# Experiment: ELISA, immobilized murine PDGF-BB (Example 11)
# Experimental: as §1, with “antigen murine” for “antigen rat”, “PDGF-BB (Peprotech 315-18)” for “PDGF-BB (R&D, 520-BB)”
# T2 sequence (P31240 82-190): as the sequence (Q05028 74-182) above, with V83I, V102I counted along it
row,Binder,EC50 [µg/mL]
1,B1,0.0428
2,B2,0.0332
3,B3,0.00268

# Biological target: T1, human PDGF-BB
# Experiment: SPR, apparent KD (avidity), IgG on immobilized human PDGF-BB (Example 17)
# Experimental: The binding analysis was carried out using a surface plasmon resonance spectroscopy-based technology applying a BIAcore B4000 system (GE Healthcare). The antigen human PDGF-BB (Cell Signaling, Cat. No. 8921BF) was immobilized at a concentration of 1 μg/mL in PBS, 0.1% BSA, 0.05 Tween using amine coupling chemistry on a C1 sensor chip (GE Healthcare, Cat. No. BR-1005-35). Anti-PDGF-BB antibody in increasing concentrations was applied in 10 mM HEPES pH 7.2, 150 mM NaCl. Utilizing a read out time of 180 sec. association phase and 600 sec. dissociation phase the apparent kₐ and apparent kd were calculated. The apparent KD (avidity) was calculated using the BIAcore T200 v2.0 fitting software.
row,Binder,Kd [nM]
1,B1,0.0782
2,B2,0.062
3,B3,0.0769
